Blank lines part the entries; values can stand above or below the molecule they belong to.
Key:
[1] = biological target: Recombinant human CLCA1 in spent supernatant of rCLCA1-expressing CHO-K1 cells (N- and C-terminal products) (human) (UniProt A8K7I4); experiment: native gel or EMSA; NativePAGE Novex Bis-Tris 4-16% with G-250; mucus and epithelial lysates from human sigmoid colon, WT and Clca1-/- mouse colon and desalted medium with rCLCA1; blotted with N- or C-terminal CLCA1 antibodies
[2] = biological target: C-terminal cleavage product of human CLCA1 in sigmoid colon mucus and epithelium (human (endogenous in sigmoid colon)) (UniProt A8K7I4); experiment: non-reducing SDS-PAGE with immunoblot; mucus and epithelial lysate from mouse distal colon or human sigmoid colon, denatured in SDS sample buffer without DTT (non-reduced) against with 100 mM DTT (reduced), blotted with C-terminal CLCA1 antibodies; shows disulfide-linked species only
[3] = biological target: C-terminal cleavage product of recombinant human CLCA1 in supernatant of transfected CHO-K1 cells (human) (UniProt A8K7I4); experiment: non-reducing SDS-PAGE with immunoblot; supernatant from hCLCA1-transfected CHO-K1 cells, reducing or nonreducing sample buffer, blotted with C terminus (3-ar) antibody; shows disulfide-linked species only
[4] = biological target: Mouse Clca1 in colonic mucus and epithelial lysate (N- and C-terminal products) (mouse (endogenous in colon)) (UniProt Q9D7Z6); experiment: native gel or EMSA; NativePAGE Novex Bis-Tris 4-16% with G-250; mucus and epithelial lysates from human sigmoid colon, WT and Clca1-/- mouse colon and desalted medium with rCLCA1; blotted with N- or C-terminal CLCA1 antibodies
[5] = biological target: 250-kDa (nonreduced) fragment of MUC2-N after cleavage by rCLCA1, D′–D3 and CysD (human); experiment: non-reducing SDS-PAGE with SYPRO Ruby stain and immunoblot; recombinant MUC2-N with or without in vitro cleavage by rCLCA1 fractions (18 h, 37 C, 20 mM Tris-HCl pH 7.5, 150 mM NaCl, 10 mM CaCl2), separated without DTT; D3 (MUC2-N3) antibody
[6] = biological target: Human CLCA1 in sigmoid colon mucus and epithelial lysate (N- and C-terminal products) (human (endogenous in sigmoid colon)) (UniProt A8K7I4); experiment: native gel or EMSA; NativePAGE Novex Bis-Tris 4-16% with G-250; mucus and epithelial lysates from human sigmoid colon, WT and Clca1-/- mouse colon and desalted medium with rCLCA1; blotted with N- or C-terminal CLCA1 antibodies
[7] = biological target: C-terminal cleavage product of mouse Clca1 in distal colon mucus and epithelium (mouse (endogenous in colon)) (UniProt Q9D7Z6); experiment: non-reducing SDS-PAGE with immunoblot; mucus and epithelial lysate from mouse distal colon or human sigmoid colon, denatured in SDS sample buffer without DTT (non-reduced) against with 100 mM DTT (reduced), blotted with C-terminal CLCA1 antibodies; shows disulfide-linked species only
[8] = biological target: the molecule itself; experiment: non-reducing SDS-PAGE with immunoblot; supernatant from hCLCA1-transfected CHO-K1 cells, reducing or nonreducing sample buffer, blotted with C terminus (3-ar) antibody; shows disulfide-linked species only

Molecule: Recombinant human CLCA1 in spent supernatant of rCLCA1-expressing CHO-K1 cells (N- and C-terminal products) (from UniProt A8K7I4 22-914; A8K7I4 22-914) (complex)
- stoichiometry N [1]: 8

Molecule: Mouse Clca1 in colonic mucus and epithelial lysate (N- and C-terminal products) (from UniProt Q9D7Z6 22-913; Q9D7Z6 22-913) (complex)
- stoichiometry N [4]: 8

Molecule: C-terminal cleavage product of mouse Clca1 in distal colon mucus and epithelium (from UniProt Q9D7Z6 22-913) (domain or fragment)
- stoichiometry N [7]: 2

B1: Uncleaved recombinant human CLCA1 secreted from transfected CHO-K1 cells (natural protein, UniProt A8K7I4 22-914, looked up)
chain: NSLIQLNNNGYEGIVVAIDPNVPEDETLIQQIKDMVTQASLYLLEATGKRFYFKNVAILIPETWKTKADYVRPKLETYKNADVLVAESTPPGNDEPYTEQMGNCGEKGERIHLTPDFIAGKKLAEYGPQGRAFVHEWAHLRWGVFDEYNNDEKFYLSNGRIQAVRCSAGITGTNVVKKCQGGSCYTKRCTFNKVTGLYEKGCEFVLQSRQTEKASIMFAQHVDSIVEFCTEQNHNKEAPNKQNQKCNLRSTWEVIRDSEDFKKTTPMTTQPPNPTFSLLQIGQRIVCLVLDKSGSMATGNRLNRLNQAGQLFLLQTVELGSWVGMVTFDSAAHVQNELIQINSGSDRDTLAKRLPAAASGGTSICSGLRSAFTVIRKKYPTDGSEIVLLTDGEDNTISGCFNEVKQSGAIIHTVALGPSAAQELEELSKMTGGLQTYASDQVQNNGLIDAFGALSSGNGAVSQRSIQLESKGLTLQNSQWMNGTVIVDSTVGKDTLFLITWTMQPPQILLWDPSGQKQGGFVVDKNTKMAYLQIPGIAKVGTWKYSLQASSQTLTLTVTSRASNATLPPITVTSKTNKDTSKFPSPLVVYANIRQGASPILRASVTALIESVNGKTVTLELLDNGAGADATKDDGVYSRYFTTYDTNGRYSVKVRALGGVNAARRRVIPQQSGALYIPGWIENDEIQWNPPRPEINKDDVQHKQVCFSRTSSGGSFVASDVPNAPIPDLFPPGQITDLKAEIHGGSLINLTWTAPGDDYDHGTAHKYIIRISTSILDLRDKFNESLQVNTTALIPKEANSEEVFLFKPENITFENGTDLFIAIQAVDKVDLKSEISNIARVSLFIPPQTPPETPSPDETSAPCPNIHINSTIPGIHILKIMWKWIGELQLSIA
modifications: glycosylated
notes: human CLCA1, full-length construct, not cut at the self-cleavage site (120 kDa); also called uncleaved rCLCA1; uncleaved CLCA1; source: CHO-K1, transfected, in supernatant
- stoichiometry N [8]: 2

The next lines start with the values.

- stoichiometry N [2]: 2
Molecule: C-terminal cleavage product of human CLCA1 in sigmoid colon mucus and epithelium (from UniProt A8K7I4 22-914) (domain or fragment)

- stoichiometry N [3]: 2
Molecule: C-terminal cleavage product of recombinant human CLCA1 in supernatant of transfected CHO-K1 cells (from UniProt A8K7I4 22-914) (domain or fragment)

- stoichiometry N [5]: 3
Molecule: 250-kDa (nonreduced) fragment of MUC2-N after cleavage by rCLCA1, D′–D3 and CysD (domain or fragment)

- stoichiometry N [6]: 8
Molecule: Human CLCA1 in sigmoid colon mucus and epithelial lysate (N- and C-terminal products) (from UniProt A8K7I4 22-914; A8K7I4 22-914) (complex)
